{
  "source": "patent US7091027B1",
  "about": "“Transgenic amorpha-4,11-diene synthesis” (GenoClipp Biotechnology B.V., priority 1998, dated 2006)",
  "system": "T1, CC(C)=CCC/C(C)=C/CC/C(C)=C/CO[P@@](=O)(O)OP(=O)(O)O",
  "T1 construct": "This enzyme preparation was used for the measurement of enzyme characteristics such as molecular weight and Km; from tissue; host or cells: young leaves of greenhouse-grown A. annua",
  "experiment": "Enzyme kinetics of Mono-Q purified amorphadiene synthase in the [3H]-FPP assay",
  "format": "biochemical, A. annua",
  "conditions": "other: 5- and 10-fold diluted Mono-Q eluted enzyme preparation, [3H]-FPP 0.25–100 μM, 30 min at 30° C.",
  "procedure": "During enzyme isolation and preparation of the assays, all operations were carried out on ice or at 4° C. Ten grams of frozen young leaves from greenhouse-grown A. annua were ground in a pre-chilled mortar and pestle in 40 ml of pre-chilled buffer containing 25 mM MES (pH 5.5), 20% (v/v) glycerol, 25 mM sodium ascorbate, 25 mM NaHSO3, 10 mM MgCl2 and 5 mM DTT (buffer A) slurried with 1 g polyvinylpolypyrrolidone (PVPP) and a spatula tip of purified sea sand. Ten grams of polystyrene resin (Amberlite XAD-4, Serva) were added and the slurry was stirred carefully for 10 min and then filtered through cheesecloth. The filtrate was centrifuged at 20,000 g for 20 min (pellet discarded), and then at 100,000 g for 90 min. […]\nThe remainder of the supernatant was added to 12.5 g DEAE anion exchanger (Whatman DE-52), which had been rinsed several times with buffer A, and stirred carefully for 10 min. […] The molecular weight was determined using size-exclusion chromatography. 200 μl of the Mono-Q eluent was loaded on a Superdex 75 (H/R10/30, Pharmacia Biotech) and eluted in the same buffer as used for Mono-Q. Enzyme activities in 0.5 ml fractions were determined as described for Mono-Q, but using undiluted eluent. […] Enzyme-kinetics were determined using 5- and 10-fold diluted Mono-Q eluted enzyme preparation and [^3H]-FPP concentrations ranging from 0.25–100 μM. […]",
  "data": [
    {"substance": "amorphadiene synthase (Artemisia annua)", "values": [
      {"measurement": "Km", "value": 0.6, "unit": "µM"}
    ]}
  ]
}
